The numbers were not newly measured in publication PMC5405074, “Receptor-Mediated Melanoma Targeting with Radiolabeled α-Melanocyte-Stimulating Hormone: Relevance of the Net Charge of the Ligand” (Frontiers in Endocrinology, 2017), which cites them from elsewhere.

On the set-up of the series: method as in 2 sources, ref 37 = [37]; PMID 9574445; doi:10.3109/08860229809045104; 37 Kok RJ Haas M Moolenaar F de Zeeuw D Meijer DK . Drug delivery to the kidneys and the bladder with the low molecular weight protein lysozyme . Ren Fail ( 1998 ) 20 : 211 – 7 . 10.3109/0886022980904 ||| ref 38 = [38]; PMID 11578896; doi:10.1016/S0969-8051(01)00241-4; 38 Akizawa H Arano Y Mifune M Iwado A Saito Y Mukai T Effect of molecular charges on renal uptake of 111 In-DTPA-conjugated peptides . Nucl Med Biol ( 2001 ) 28 : 761 – 8 . 10.1016/S0969-8051(01)00241. The conditions noted are these: urinary excretion; cited from earlier work.

“succinylated lysozyme: succinylated lysozyme, compared to the non-succinylated molecule with six amino groups”: the “Excretion compared to non-succinylated molecule (in words)” value is “dramatically increased”.
